Common to all, as to assay type: protein assay
Substrate in data set [1]: OC[C@H]1O[C@H](O[C@H]2[C@@H](O)[C@H](O)[C@@H](CO)O[C@@H]2O)[C@@H](O)[C@@H](O)[C@@H]1O
Briefly: (§1) Activity of Bacteroides thetaiotaomicron GH92 alpha-mannosidase 2199 D648A mutant assessed as as mannose release after 16 hrs by HPLC relative to wild type enzyme.

Substrate in data set [2]: O=[N+]([O-])c1ccc(O[C@H]2O[C@H](CO)[C@@H](O)[C@H](O)[C@@H]2O)cc1
The data set is described as §1.

Substrate in data set [3]: OC[C@H]1O[C@H](O[C@H]2[C@@H](O)[C@H](O)[C@@H](CO)O[C@@H]2O)[C@@H](O)[C@@H](O)[C@@H]1O
Briefly: (§2) Ratio of Kcat to Km for Bacteroides thetaiotaomicron GH92 alpha-mannosidase 2199 D648A mutant assessed as as mannose release after 16 hrs by HPLC relative to wild type enzyme.

Substrate in data set [4]: O=[N+]([O-])c1ccc(O[C@H]2O[C@H](CO)[C@@H](O)[C@H](O)[C@@H]2O)cc1
The data set is described as §2.

Substrate in data set [5]: OC[C@H]1O[C@H](O[C@H]2[C@@H](O)[C@H](O)[C@@H](CO)O[C@@H]2O)[C@@H](O)[C@@H](O)[C@@H]1O
Briefly: (§3) Activity of Bacteroides thetaiotaomicron GH92 alpha-mannosidase 2199 D648N mutant assessed as as mannose release after 16 hrs by HPLC relative to wild type enzyme.

Substrate in data set [6]: O=[N+]([O-])c1ccc(O[C@H]2O[C@H](CO)[C@@H](O)[C@H](O)[C@@H]2O)cc1
The description is as §3.

Substrate in data set [7]: OC[C@H]1O[C@H](O[C@H]2[C@@H](O)[C@H](O)[C@@H](CO)O[C@@H]2O)[C@@H](O)[C@@H](O)[C@@H]1O
Briefly: (§4) Ratio of Kcat to Km for Bacteroides thetaiotaomicron GH92 alpha-mannosidase 2199 D648N mutant assessed as as mannose release after 16 hrs by HPLC relative to wild type enzyme.

Substrate in data set [8]: O=[N+]([O-])c1ccc(O[C@H]2O[C@H](CO)[C@@H](O)[C@H](O)[C@@H]2O)cc1
The description is as §4.

Substrate in data set [9]: OC[C@H]1O[C@H](O[C@H]2[C@@H](O)[C@H](O)[C@@H](CO)O[C@@H]2O)[C@@H](O)[C@@H](O)[C@@H]1O
Briefly: (§5) Activity of Bacteroides thetaiotaomicron GH92 alpha-mannosidase GH92 alpha-mannosidase 3990 assessed as mannose release after 16 hrs by HPLC.

Substrate in data set [10]: O=[N+]([O-])c1ccc(O[C@H]2O[C@H](CO)[C@@H](O)[C@H](O)[C@@H]2O)cc1
The description is as §5.

Substrate in data set [11]: OC[C@H]1O[C@H](O[C@H]2[C@@H](O)[C@H](O)[C@@H](CO)O[C@@H]2O)[C@@H](O)[C@@H](O)[C@@H]1O
Briefly: (§6) Ratio of Kcat to Km for Bacteroides thetaiotaomicron GH92 alpha-mannosidase GH92 alpha-mannosidase 3990 assessed as mannose release after 16 hrs by HPLC.

Substrate in data set [12]: O=[N+]([O-])c1ccc(O[C@H]2O[C@H](CO)[C@@H](O)[C@H](O)[C@@H]2O)c([N+](=O)[O-])c1
The data set is described as §6.

Substrate in data set [13]: O=[N+]([O-])c1ccc(O[C@H]2O[C@H](CO)[C@@H](O)[C@H](O)[C@@H]2O)cc1
The data set is described as §6.

Substrate in data set [14]: OC[C@H]1O[C@H](O[C@H]2[C@@H](O)[C@H](O)[C@@H](CO)O[C@@H]2O)[C@@H](O)[C@@H](O)[C@@H]1O
Briefly: (§7) Activity of Bacteroides thetaiotaomicron GH92 alpha-mannosidase 3990 D644N mutant assessed as as mannose release after 16 hrs by HPLC relative to wild type enzyme.

Substrate in data set [15]: O=[N+]([O-])c1ccc(O[C@H]2O[C@H](CO)[C@@H](O)[C@H](O)[C@@H]2O)cc1
Described as §7.

Substrate in data set [16]: OC[C@H]1O[C@H](O[C@H]2[C@@H](O)[C@H](O)[C@@H](CO)O[C@@H]2O)[C@@H](O)[C@@H](O)[C@@H]1O
Briefly: (§8) Ratio of Kcat to Km for Bacteroides thetaiotaomicron GH92 alpha-mannosidase 3990 D644N mutant assessed as as mannose release after 16 hrs by HPLC relative to wild type enzyme.

Substrate in data set [17]: O=[N+]([O-])c1ccc(O[C@H]2O[C@H](CO)[C@@H](O)[C@H](O)[C@@H]2O)c([N+](=O)[O-])c1
The data set is described as §8.

Substrate in data set [18]: O=[N+]([O-])c1ccc(O[C@H]2O[C@H](CO)[C@@H](O)[C@H](O)[C@@H]2O)cc1
The data set is described as §8.

Where a chain is given by its changes, count along the chain named. Names may count otherwise.

B1: Alpha-1,2-mannosidase (BT_2199) (Bacteroides thetaiotaomicron), Q8A5N9 D648A (protein)
chain: MVTRLFFLSICFPFLLTSCQQSKKTVEFVDYVNPLMGTESTFAFSHGNTYPAVAVPWGMNFWSPQTGENGSGWMYTYTDSLMRGFRQTHQPSPWINDYGTFSIMPLAGELKMSHKERLVPFSHQQEKATPYNYSVTFNNGLQTSLSATSRGAVFEVSFPEKEDQYVVVDAYNGGSSITIEPEKRLVKGATRYNNGGVPDNFANYFMMEFSHPVIEYGTYNGDTLLHHQTDVAADYTCAYLKFDVPAGEKLTIRTASSFISPEQAAINFNREVADADVQLISGKAREQWNNYLGRVEAEGGTDEQLRTFYSCLYRTLLFPREFYEFDSQGNPVYYSPYDGNVHDGYMYTDNGFWDTFRAVHPLFTLLYPEVSERVTQSIINAYNESGFMPEWASPGHRGCMIGNNSVSLLVDAWMKGIQTVDAEKALEAMIHQTQARHAEIASVGRDGFEYYDKLGYVPYPEVPEATAKTLEYAYADWCIARFAESLGKQDIADQYYQKAPNYRNLYYPEHGFMWTKDAKGNWRDRFDATEWGGPFTEGSSWHWTWSVFHDPEGLSELMGGHEPMIARLDSMFVAPNTYNYGTYGFVIHEIAEMVALNMGQYAHGNQPVQHAIYLYDYIGQPWKTQYHLRNVMDKLYNSGSKGYCGDEANGQTSAWYVFSAMGFYPVCPGMPEYAIGSPLFKKVTLHLPEGKNFVVSAADNAADRPYIRKALLNGQEFTRNYLTHDELKQGGELNLSMDSVPNQQRGTQPADFPYSYSK
Consider B1, for which the Km was 2720 µM in data set [1] and “Not Active” in data set [2]. For the same protein, the kcat in [1] was 0.000433 s⁻¹; in data set [2], “Not Active”. Besides, the kcat/Km was 0.167 M⁻¹ s⁻¹ in data set [3] and “Not Active” in data set [4].

B2: Alpha-1,2-mannosidase (BT_2199) (Bacteroides thetaiotaomicron), Q8A5N9 D648N (protein)
chain: B1 chain with A648N
On to B2, for which the Km in [5] was 1270 µM; in [6], “Not Active”. The kcat in [5] was 0.000483 s⁻¹; in data set [6] it was “Not Active”. Moreover, the kcat/Km in [7] is 0.383 M⁻¹ s⁻¹; in [8], “Not Active”.

B3: Alpha-1,2-mannosidase (BT_3990) (Bacteroides thetaiotaomicron), Q8A0N1 (protein)
chain: MKRLLLIACILNCTLLSQAKDWTQYVNPLMGSQSTFELSTGNTYPAIARPWGMNFWTPQTGKMGDGWQYTYTANKIRGFKQTHQPSPWINDYGQFSIMPIVGQPVFDEEKRASWFAHKGEVATPYYYKVYLAEHDIVTEMTPTERAVLFRFTFPENDHSYVVVDAFDKGSYIKIIPEENKIIGYTTRNSGGVPENFKNYFIIEFDKPFTYKATVENGNLQENVAEQTTDHAGAIIGFKTRKGEQVNARIASSFISFEQAAANMNELGKDNIEQLAQKGKDAWNQVLGKIEVEGGNLDQYRTFYSCLYRSLLFPRKFYELDANGQPIHYSPYNGQVLPGYMFTDTGFWDTFRCLFPLLNLMYPSVNKEMQEGLINTYLESGFFPEWASPGHRGCMVGNNSASILVDAYMKGVKVDDIKTLYEGLIHGTENVHPEVSSTGRLGYEYYNKLGYVPYDVKINENAARTLEYAYDDWCIYRLAKELKRPKKEISLFAKRAMNYKNLFDKESKLMRGRNEDGTFQSPFSPLKWGDAFTEGNSWHYTWSVFHDPQGLIDLMGGKEMFVTMMDSVFAVPPIFDDSYYGQVIHEIREMTVMNMGNYAHGNQPIQHMIYLYDYAGQPWKAQYWLRQVMDRMYTPGPDGYCGDEDNGQTSAWYVFSALGFYPVCPGTDEYVMGTPLFKKATLHFENGNSLVIDAPNNSTENFYIDSMSFNGADHTKNYLRHEDLFKGGTIKVDMSNRPNLNRGTKEEDMPYSFSKE
In the case of B3, the Km in data set [9] was determined as 760 µM; in data set [10], 4200 µM. The kcat in data set [9] was 86.7 s⁻¹; in data set [10], 0.0933 s⁻¹. For the same protein, the kcat/Km came out at 113000 M⁻¹ s⁻¹ in data set [11], 16.7 M⁻¹ s⁻¹ in data set [12] and 21.7 M⁻¹ s⁻¹ in data set [13].

B4: Alpha-1,2-mannosidase (BT_3990) (Bacteroides thetaiotaomicron), Q8A0N1 D644N (protein)
chain: B3 chain with D644N
For B4, the Km is 720 µM in [14] and “Not Active” in data set [15]. The turnover number (kcat) in data set [14] is 0.000383 s⁻¹; in data set [15], “Not Active”. Besides, the values for the kcat/Km in data set [16], in data set [17] and in [18] were 0.533 M⁻¹ s⁻¹, 0.567 M⁻¹ s⁻¹ and “Not Active”, respectively.

By Km is commonly meant the substrate concentration at which the rate is half of its maximum. A word on the kcat: it is the maximal rate divided by the concentration of active sites. As a reminder, the kcat/Km is the turnover number divided by the Michaelis constant.
